According to article PMC9519457 (Nature Microbiology, 2022):
Positions count from the first letter of the chain named.

Assays:
Assay in all cases: BLI
Details in all cases: both partners purified
[1] = biological target: recombinant SARS-CoV-2 RBD-His protein (Sino Biological, 40592-V08B) (SARS-CoV-2, UniProt P0DTC2)
[2] = biological target: SARS-CoV-2 RBD (residues 319-541), wild type (SARS-CoV-2, wild type, UniProt P0DTC2)
SARS-CoV-2 Alpha RBD [3] = biological target: T1, SARS-CoV-2 Alpha RBD (SARS-CoV-2 Alpha (B.1.1.7), N501Y (stands in the printed letters))
SARS-CoV-2 Alpha RBD [4] = biological target: T1, SARS-CoV-2 Alpha RBD; remark: listed apart in the source
[5] = biological target: S-R/x2 SARS-CoV-2 spike (x2 disulfide-stabilized RBD 'down' spike) (SARS-CoV-2, wild type (Wuhan-Hu-1 spike), UniProt P0DTC2, stabilised)
[6] = biological target: S-R SARS-CoV-2 spike (unstabilized native spike with furin site changed to a single R) (SARS-CoV-2, wild type (Wuhan-Hu-1 spike), UniProt P0DTC2, stabilised)
[7] = biological target: S-R/PP SARS-CoV-2 spike (2P-stabilized spike with furin site changed to a single R) (SARS-CoV-2, wild type (Wuhan-Hu-1 spike), UniProt P0DTC2, stabilised)
[8] = biological target: SARS-CoV-2 Alpha (B.1.1.7) variant RBD (SARS-CoV-2 Alpha (B.1.1.7), N501Y)
[9] = biological target: S-R/x3 SARS-CoV-2 spike (x3 disulfide-stabilized RBD 'down' spike) (SARS-CoV-2, wild type (Wuhan-Hu-1 spike), UniProt P0DTC2, stabilised)
SARS-CoV-2 Alpha RBD [10] = biological target: T1, SARS-CoV-2 Alpha RBD; remark: listed apart in the source

B1: C978 (R1-32-like mAb, ref. 27) (antibody, V domains shown)
VH: QVQLVQSGAEVKKPGSSVKVSCKASGATFSNYIISWVRQAPGQGLEWMGRTIPLLDIANYAQKFQGRVTITADKSTRIVYMHLGSLTSEDTAVYYCATGKGYSSSSAAYYFDHWGQGTLVTVSS
VL: QSVLTQPPSVSGAPGQRVTISCTGTNSNIGAGYDIHWYQQLPGTAPKLLIYGSNNRPSGVPDRFSGSKSGTSASLAITGLQAEDEADYYCQSYDSSLSGSEVFGGGTKLTVL
binding result [1]: binds | binding result [2]: binds

B2: R1-32 (antibody, V domains shown)
VH: EVQLVESGAEVKKPGSSVKVSCKASGGTFSSYAISWVRQAPGQGLEWMGGIIPILGIANYAQKFQGRVTITADKSTSTAYMELSSLRSEDTAVYYCARENGYSGYGAAANFDLWGRGTLVTVSS
VL: QSVLTQPPSVSGAPGQRVTISCTGSSSNIGAGYDVHWYQQLPGTAPKLLIYGNSNRPSGVPDRFSGSKSGTSASLAITGLQAEDEADYYCQSYDSSLSGSVFGGGTKLTVL
notes: human IgG1
Kd (SARS-CoV-2 Alpha RBD [3]): 4.74 nM | koff (SARS-CoV-2 Alpha RBD [3]): 0.00195 s⁻¹ | kon (SARS-CoV-2 Alpha RBD [3]): 411000 M⁻¹ s⁻¹ | koff (SARS-CoV-2 Alpha RBD [4]): 0.000354 s⁻¹ | kon (SARS-CoV-2 Alpha RBD [4]): 499000 M⁻¹ s⁻¹

B3: C092 (R1-32-like mAb, ref. 28) (antibody, V domains shown)
VH: QVQLVQSGAEVKKPGSSVKVSCKASGGSFTNHFISWVRQAPGQGLEWMGRIIPILGTANYAQNFQGRVMMTADKSTSTAYMELSSLRSEDTAVYYCARDSGYSGYGSTYYMDVWGKGTTVTVSS
VL: B2 VL with S26N, T44A, S54N, G70D, A82V, G99D, G104S, L108V
binding result [1]: binds | binding result [2]: binds

B4: C832 (R1-32-like mAb, ref. 29) (antibody, V domains shown)
VH: QVQLVQSGAEVKKPGSSVKVSCKASGGTFSSYSISWVRQAPGQGLEWMGRIIPILGIASYAQKFQGRVTITADKSTSTVYMELTGLRSDDTAVYYCARDRGYSDYGSHYYMDVWGKGTTVTVSS
VL: B2 VL with G52I, G99D
binding result [1]: binds | binding result [2]: binds

B5: C091 (R1-32-like mAb, ref. 28) (antibody, V domains shown)
VH: B3 VH with S28T, T30S, N31S, H32Y, F33T, T57I, N63K, M69T, M70I
VL: B2 VL with G104T, G105V, L108V
binding result [1]: binds | binding result [2]: binds

B6: R1-32 (human IgG1 monoclonal antibody) (antibody, V domains shown)
VH: B2 VH
VL: B2 VL
binding result [5]: binds | binding result [6]: binds | binding result [7]: binds | Kd [8]: 0.71 nM | binding result [9]: binds

B7: C807 (R1-32-like mAb, ref. 29) (antibody, V domains shown)
VH: QVQLVQSGAEAKKPGSSVKVSCKASGGTFKSYIINWVRQAPGQGLEWMGEIIPIFGTANYAQKFQGRVTSTADESTSTAYMELSSLKSEDTAVYYCARGRGYSGYGASYYFDYWGQGTLVTVSS
VL: B2 VL with S26N, G52A, S96G
binding result [1]: binds | binding result [2]: binds

B8: C963 (R1-32-like mAb, ref. 27) (antibody, V domains shown)
VH: QVQLVQSGAEVKKPGSSVRVSCKASGGTFSSFTITWVRQAPGQGLEWMGRIIPNLNIPNYAQRFQGRITITAEKSTSTAYLELSSLRSEDTAVYYCARGVGYSGSGSNWYFDLWGRGTLVTVSS
VL: QSVLTQPPSVSGAPGQRVTISCTGSSSNIGAGYDVHWYQQLPGTAPKLLISGHINRPSGVPDRFSGSTSGTSASLAITGLQAEDEADYYCQSYDSSLSDSVFGGGTKLTV
binding result [1]: binds | binding result [2]: binds

B9: C941 (R1-32-like mAb, ref. 27) (antibody, V domains shown)
VH: QVQLVQSGAEVKKPGSSVKVSCKASGGTSRSYPISWVRQAPGQGLEWMGRIIPIVGTANYAQRFQGRVTITADESTGTAYMELSSLRSEDTAVYYCARNRGYSDYGSVYYFDYWGQGTLVTVSS
VL: B8 VL with T44A, S51Y, G52R, H53N, T68K, E83D, D99G
binding result [1]: binds | binding result [2]: binds

B10: FC08 (antibody, V domains shown)
VH: QLLQQSGAEVKKPGSSVKVSCKASGGTFSSYAISWVRQAPGQGLEWMGGIIPIIGIANYAQKFQGRVTITADKSTSTAYMELSSLRSEDTAVYYCARERGYSGYGAAYYFDYWGQGTLVTVSS
VL: SVLTQPPSVSGAPGQRVTISCTGSSSNIGAGYDVHWYQQLPGTAPKLLIYGNSNRPSGVPDRFSGSKSGTSASLAITGLQAEDEADYYCQSYDSSLSGSVFGGGTKLTVL
Kd (SARS-CoV-2 Alpha RBD [10]): 0.15 nM | koff (SARS-CoV-2 Alpha RBD [10]): 0.00025 s⁻¹ | kon (SARS-CoV-2 Alpha RBD [10]): 1.69e+06 M⁻¹ s⁻¹

B11: FC08 (R1-32 related VH1-69 antibody, ref. 10) (antibody, V domains shown)
VH: B10 VH
VL: B10 VL
binding result [6]: binds | binding result [9]: binds | binding result [2]: binds
